Here are results for 13 molecules from patent US20260258115A1 (MAPP BIOPHARMACEUTICAL, published 2026).

B1: ADI-21008 (antibody, V domains shown)
VH: QVQLQESGAGLLKPSETLSLTCTVYGGTFSGYHWNWIRQPPGKGLEWIGEINHRENTDYNASLESRVTISVDTSKRQFSLKMNSVTVADTAVYYCARGIQVLTNLGTEVRVHQFLDLWGRGTLVTVSS
VL: DIVLTQTPATLSLSPGERATLSCRASQSVSTYLAWYQQKPGQAPRLLIYDASNRAAGIPARFSGSGSGTDFTLTISSLEPEDFAVYYCQQRTNWLPLTFGGGTKVDIK
notes: also called Ab 259
B2: ADI-20996 (antibody, V domains shown)
VH: QVQLVESGPALVKPTQTLTLTCTFSGFSLTTRGMCVSWIRQPPGKALEWLARIDWDDDKYYSTSLKTRLTISKDTSKNQVVLTMTNMDPVDTATYYCARASTLTTAGYYLHYKDVWGNGTTVTVSS
VL: DIRMTQSPSSLSASVGDRVTITCRASQSIGTYLNWFQQKPGKAPNLLIYAASILHSGVPSRFSGSGSGTDFTLTIRTLQPEDFATYYCQQSYPTVTFGQGTKVEIK
B3: ADI-21001 (antibody, V domains shown)
VH: EVQLVESGPGLVKPSETLSLTCTVSGGSISDIDYYWGWIRQPPGKGLEWIGSIYYSGSTYYNPSLESRVTISVDTSKNQFSLKLRSVSAADTALYHCARHGPPWVVTAIRGHAFDVWGQGTTVTVSS
VL: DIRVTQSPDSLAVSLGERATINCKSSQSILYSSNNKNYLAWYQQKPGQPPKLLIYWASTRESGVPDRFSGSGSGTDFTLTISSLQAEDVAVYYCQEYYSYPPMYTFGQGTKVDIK
B4: ADI-21000 (antibody, V domains shown)
VH: EVQLVESGPVLVKPRGTLTLTCTVSGFSLSDARMGVSWIRQPPGKALEWLAHIFWDDEKSYSTSLKNRLTISKDTSRGQVVLRMTNMDPVDTGTYFCARVNTYHSGGYYLYYFDVWGQGTLVTVSS
VL: EIVLTQSPSSLSASVGDRVTITCRASQIIASYLNWYQQKPGQAPKLLIYAASSLQSGVPSRFSGSGSGTDFTLTISSLQPEDFATYYCQQSYSTRMYTFGQGTKVEIK
B5: ADI-20981 (antibody, V domains shown)
VH: QVQLQESGPRLVKPSETLSLTCTVSGDSISSRNYFWAWIRQPPGKGLEWIGTIYYSGNTYSNPSLKSRVTISVDTSKKQFSLNLSSVTAADTAVYYCARGAYGGDAFDIWGQGTVVTVSS
VL: DIRVTQSPSSVSASVGDRVTITCRASQGIGTWLAWYQQKPGKAPHLLIYAASRLQSGVPSRFSGSGSGTDFTLSISSLHPEDFATYYCQQAYAFPRTFGQGTKVEIK
B6: ADI-20976 (antibody, V domains shown)
VH: QVQLVESGGDLVQKGGSLRLSCAASGFTFDNYAMTWIRQAPGQGLEWVSTVSGFVLGTGYTTYYADSVKGRFTISRDSSKNTVYLQLNSLRAEDTAVYYCAKCAATRNECLWDYLQQWGQGTTVTVSS
VL: EIVMTQSPSSLSASVGDRVTITCRASQSVSIYLNWYQQKGGKAPKLLIYGASALQRGVPSRFSGSGSGTDFTLTITSLQPEDFATYFCHQSYSAPQTFGQGTKVDIK
B7: ADI-21007 (antibody, V domains shown)
VH: QVQLVQSGADVKKPGASVKVSCKSSGYTFSNHSMHWVRQAPGQGLEWMGRIHPSSGTTTYAQKFQGRVTMTRDTSTSTVYMEVSSLRSEDTAVYYCARSPFFDFDFWGQGTMVTVSS
VL: SYVLTQPHSVSESPGKTVTISCTRSSGSIASNYVQWYQQRPGSAPTSVIYEDNQRPSGVPDRFSGSIDSTSNSASLTISGLKTEDEADYYCQSYYSSGWVFGGGTKLTVL
B8: ADI-20993 (antibody, V domains shown)
VH: EVQLVESGGGVVQPGRSLRLTCAASGFPFSSYAMHWVRQAPGKGLEWVAVTWYDGPNRDYADSVKGRFTVSRDNSKNTLYLQMTSLRADDTAVYYCARRGSWGSFDYWGQGTLVTVSS
VL: DIVMTQSPLSLSATPGEPASISCRPSQSLLHSNGYNYLEWYLQKPGQSPQLLIYLGSNRASGVPDRFSGGGSGTDFTLRISRVEADDVGVYYCMQASQTPYTFGQGTKVEIK
B9: ADI-20989 (antibody, V domains shown)
VH: EVQLLESGPGLVKPSGTLSLTCAVSGGSIINSNWWSWVRQSPGKGLEWIGDIYHSGSTTYNPSLKSRVTISVDRSKNQYSLRLTSVTAADTAVYYCAKIGPDNRSGPDYYYFMDVWGKGTTVTVSS
VL: EIVLTQSPSSLPASVGDRVTISCRASQSISNYVYWYQQKPGKAPKLLIYAASSLQSGVPSRFSGSGSGTDFTLSISSLQFEDFATYFCQQSYSTPPTFGQGTKLEIK
B10: ADI-21002 (antibody, V domains shown)
VH: QVQLVESGPGLVKPSGTLSLTCAVSGDSINSGNWWNWVRQAPGKGLEWIGEIYHRGTSNYNPSLKSRVTISVDQSKNQFSLKVTSLTAADTAIYYCARARGYSSGPSYYYYLDVWGKGTLVTVSS
VL: EIVMTQSPSSLSASVGDRVTISCRASQSISTYLNWYQQKPGKAPKVIIYGASNLQSGVPSRFSGSGSGTDFTLTISSLQPEDFATYYCQKSFNPCVFGQGTKVDIK
B11: ADI-21004 (antibody, V domains shown)
VH: QVQLQESGGGVVQPGRSLTLSCAASGFTFSSYGMHWVRQAPGKGLDWVAEIWYDGSNKYYVDSVKGRFTISRDNSKNTLYLQMKSLRAEDTAIYYCARDGGYESPFFDKWGQGTLVTVSS
VL: EIVMTQSPDSLGVSLGERATINCKSSQSLYTSNHENSLAWYQQKPGQPPRLLIYWASTRELGVPDRFSGSGSGTDFTLTISSLQAEDVAVYYCQQYHTTPLTFGPGTKVEIK
B12: ADI-20990 (antibody, V domains shown)
VH: EVQLVESGGGVVQPGRSLRLSCSASGFPFHSYAMHWVRQAPGKGLEWVAGIWYEGSSESYADSVKGRLTISRDNSRNTLYLQMNSLRVEDTAVYYCARRGSFSGFDSWGQGSLVTVSS
VL: DIVMTQSPLSLPVTPGEPASISCRSSQSLLHSNGYNYLDWYLQKPGQSPQLLISLGSNRASGVPDRFSGSVAGTDFTLKISRVEAEDVGVYYCMQSSQTPYTFGQGTKVDIK
B13: ADI-21003 (antibody, V domains shown)
VH: QVQLQQWGAGLLKPSETLSLSCAVSGGSFSGYYWTWIRQPPGKGLEWIGEINHSGSTNYNPSLKSRVTISVDTSKNQFSLKLSSVTAADTAVYYCARARYFDYLAHWSFDLWGRGTLVTVSS
VL: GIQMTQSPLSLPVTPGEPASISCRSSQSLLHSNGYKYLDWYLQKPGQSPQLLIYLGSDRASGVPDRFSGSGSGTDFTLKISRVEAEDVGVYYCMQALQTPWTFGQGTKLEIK

In general, Kd refers to a measure of binding affinity in units of concentration. A lower Kd goes with a tighter complex.

The target of the first test is T1, RSV postfusion F (postF), subtype A (respiratory syncytial virus, subtype A, UniProt P03420 26-513).
T1 construct: also called F ΔFP; Postfusion subtype A
The test is described as follows: BLI, IgG. (BLI is a label-free optical method that tracks binding on a fibre tip over time.)
B1 had an equilibrium dissociation constant (Kd) of 0.918 nM.
Same read-out and setting: then B2, with 0.204 nM; and B3, with 0.277 nM; and B4, with 0.295 nM.
The molecule B5 displayed an equilibrium dissociation constant (Kd) of 0.233 nM.
The same measure, in the same setting: next, B6: 0.263 nM; B7: 0.171 nM.
On to B8, for which the affinity, expressed as Kd, was 0.168 nM.
Molecule B9 registered a dissociation constant Kd of 0.428 nM.
Molecule B10 registered a Kd of 0.214 nM.
Take B11: the dissociation constant Kd worked out at 0.54 nM.
On the same count and under the same terms, then B12, with 0.178 nM; and B13, with 0.44 nM.

The target of a further test is RSV prefusion F (preF), subtype B (respiratory syncytial virus, subtype B). The test is described as follows: BLI, IgG.
The molecule B1 registered a Kd of 4.14 nM.
Molecule B2 yielded a Kd of 1.06 nM.
Turning to B3, the dissociation constant (Kd) was determined as 1.85 nM.
For the molecule B4, the dissociation constant Kd was 1.3 nM.
For B5, binding was characterised by a dissociation constant (Kd) of 2.14 nM.
The same measure, in the same setting: then B6, with 0.955 nM; and B7, with 1.72 nM; and B8, with 0.742 nM.
B9 registered a Kd of 6.29 nM.
In the case of B10, binding was put at a Kd of 8.6 nM.
B11 came in with a Kd of 10.2 nM.
On the same count and under the same terms, next, B12: 0.904 nM; B13: 0.987 nM.

The next test addresses RSV prefusion F (preF), subtype A (respiratory syncytial virus, subtype A, UniProt P03420 26-513). The test is described as follows: BLI, IgG.
For B1, the Kd amounted to 5.68 nM.
Still for that read-out and setting: next, B2: 1.03 nM; B3: 2.12 nM.
Regarding B4, the dissociation constant (Kd) turned out to be 1.49 nM.
The same measure, in the same setting: then B5, with 2.34 nM; and B6, with 1.86 nM.
Take B7: the Kd was 1.48 nM.
In turn, B8 yielded a Kd of 1.38 nM.
As for B9, the affinity, expressed as Kd, was 4.8 nM.
Molecule B10 had a Kd of 2.36 nM.
In the case of B11, the dissociation constant (Kd) was 4.59 nM.
For B12, the Kd was determined as 1.58 nM.
The same measure, in the same setting: then B13, with 4.75 nM.

Another test deals with T2, RSV postfusion F (postF), subtype B (respiratory syncytial virus, subtype B).
T2 construct: also called F ΔFP; Postfusion subtype B
The test is described as follows: BLI, IgG.
On to B1, for which the Kd was 1.45 nM.
B2 displayed a Kd of 1.12 nM.
B3 displayed a Kd of 0.302 nM.
B4 returned a dissociation constant (Kd) of 0.602 nM.
B5 displayed a dissociation constant (Kd) of 0.295 nM.
Regarding B6, the affinity, expressed as Kd, was 0.304 nM.
Molecule B7 returned an equilibrium dissociation constant (Kd) of 0.171 nM.
The molecule B8 gave a dissociation constant (Kd) of 0.273 nM.
Take B9: the dissociation constant (Kd) worked out at 0.809 nM.
The same measure, in the same setting: then B10, with 6.39 nM; and B11, with 0.798 nM.
Molecule B12 showed a Kd of 0.312 nM.
On to B13, for which the Kd came out at 0.421 nM.
